Experiments:
GST-HSF2N96 (human) = GST-HSF2N96 (human) (UniProt Q03933); assay: GST pull-down; 35S-labeled in vitro translated protein on GST-fusion glutathione-Sepharose, SDS-PAGE, autoradiography, BAS2000 quantification
GST-HSF1N101 (human) = GST-HSF1N101 (human) (UniProt Q00613); assay: as above
Chain of GST-HSF1N101 (human) (Q00613 101-529): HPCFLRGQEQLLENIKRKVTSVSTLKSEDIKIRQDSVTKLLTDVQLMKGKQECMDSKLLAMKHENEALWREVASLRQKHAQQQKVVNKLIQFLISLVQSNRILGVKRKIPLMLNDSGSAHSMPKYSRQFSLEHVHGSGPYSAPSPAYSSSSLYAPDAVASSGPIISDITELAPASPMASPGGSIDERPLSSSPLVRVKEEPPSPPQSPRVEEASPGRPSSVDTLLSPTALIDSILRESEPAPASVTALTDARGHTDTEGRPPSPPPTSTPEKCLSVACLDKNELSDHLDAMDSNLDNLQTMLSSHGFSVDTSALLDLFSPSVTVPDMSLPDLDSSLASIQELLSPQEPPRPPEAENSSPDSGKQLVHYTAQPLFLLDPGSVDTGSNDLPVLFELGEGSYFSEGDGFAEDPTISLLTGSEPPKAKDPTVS

Chain of GST-HSF2N96 (human) (Q03933 96-536): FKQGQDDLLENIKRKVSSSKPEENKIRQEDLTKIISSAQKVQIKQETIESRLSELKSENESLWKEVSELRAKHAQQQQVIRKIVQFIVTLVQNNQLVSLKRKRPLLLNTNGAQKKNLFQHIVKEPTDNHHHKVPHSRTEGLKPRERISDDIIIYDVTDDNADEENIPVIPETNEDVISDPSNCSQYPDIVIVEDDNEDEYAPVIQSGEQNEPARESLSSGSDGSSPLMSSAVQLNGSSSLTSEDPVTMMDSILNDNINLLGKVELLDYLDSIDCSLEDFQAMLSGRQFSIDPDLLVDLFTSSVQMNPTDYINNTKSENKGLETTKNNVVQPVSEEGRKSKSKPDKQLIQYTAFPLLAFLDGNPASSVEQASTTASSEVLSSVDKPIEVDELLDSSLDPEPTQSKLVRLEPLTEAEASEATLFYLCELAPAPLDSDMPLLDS

proportion of bound HSF2BP (% of the level of input) (% of the level of input) (GST-HSF2N96 (human)): 7.9
proportion of bound HSF2BP (% of the level of input) (% of the level of input) (GST-HSF1N101 (human)): 8.5
B1: HSF2 binding protein (HSF2BP), in vitro translated, 35S-methionine-labeled (protein)
chain: MGEAGAAEEACRHMGTKEEFVKVRKKDLERLTTEVMQIRDFLPRILNGEVLESFQKLKIVEKNLERKEQELEQLKMDCEHFKARLETVQADNIREKKEKLALRQQLNEAKQQLLQQAEYCTEMGAAACTLLWGVSSSEEVVKAILGGDKALKFFSITGQTMESFVKSLDGDVQELDSDESQFVFALAGIVTNVAAIACGREFLVNSSRVLLDTILQLLGDLKPGQCTKLKVLMLMSLYNVSINLKGLKYISESPGFIPLLWWLLSDPDAEVCLHVLRLVQSVVLEPEVFSKSASEFRSSLPLQRILAMSKSRNPRLQTAAQELLEDLRTLEHNV
modifications: 35S-methionine label
